The target in experiment [1] is anti-FXIa antibody 076D-M007-H04-CDRL3-N110D. The experiment is described as follows: ELISA, 076D-M007-H04-CDRL3-N110D coated at 1 µg/ml, anti-human lambda light chain-peroxidase detection.
Experiment [2] has the same target. In words: cell-based or functional assay.

Some results are limits rather than exact numbers.

B1: TPP-8243 (antibody, human IgG1, lambda, V domains shown)
VH: EVQLLESGGGLVQPGGSLRLSCAASGFTFSNYGIHWVRQAPGKGLEWVSAIGTGGDTYYADSVMGRFTISRDNSKNTLYLQMNSLRAEDTAVYYCARDRGYYDILTGLYDYWGQGTLVTVSS
VL: QSVLTQPPSASGTPGQRVTISCSGSSSNIGNNAVNWYQQLPGTAPKLLIYGNYHRPSGVPDRFSGSKSGTSASLAISGLRSEDEADYYCSSYAGSNNWVFGGGTKLTVLG
In experiment [1], B1 showed an EC50 of 0.256 nM. In experiment [2], this molecule showed a Neutralizing activity, IC50 (biochemical FXIa assay) of 1.13 nM; an aPTT 1.5 X of 0.3 µM; an aPTT 1.5 X (EC150) of 0.3 µM; a biochemical FXIa assay IC 50 of 1.1 nM. In experiment [2], the plasma based FXIa assay, IC50 was 5 nM and the plasma based assay IC 50 is 5 nM.

B2: TPP-8236 (antibody, human IgG1, lambda, V domains shown)
VH: EVQLLESGGGLVQPGGSLRLSCAASGFTFSDYYMNWVRQAPGKGLEWVSTISGTGAAAFYADSVRGRFTISRDNSKNTLYLQMNSLRAEDTAVYYCARDQYLTGGAFDIWGQGTLVTVSS
VL: QSVLTQPPSASGTPGQRVTISCSGSSSNIGNNAVNWYQQLPGTAPKLLIYGNSNRPSGVPDRFSGSKSGTSASLAISGLRSEDEADYYCSSYRGSSTLVVFGGGTKLTVLG
For B2, the EC50 in experiment [1] stood at 0.484 nM. In addition, in experiment [2], the Neutralizing activity, IC50 (biochemical FXIa assay) was > 1000 nM.

B3: TPP-8246 (antibody, human IgG1, lambda, V domains shown)
VH: EVQLLESGGGLVQPGGSLRLSCAASGFTFSSYSMNWVRQAPGKGLEWVSTISGSGGITHYADSVKGRFTISRDNSKNTLYLQMNSLRAEDTAVYYCARDRGNRVAARPAFDYWGQGTLVTVSS
VL: QSVLTQPPSASGTPGQRVTISCTESSSNTGAGYDVHWYQQLPGTAPKLLIYGNTNRPSGVPDRFSGSKSGTSASLAISGLRSEDEADYYCASWDDNLGGWVFGGGTKLTVLG
The molecule B3 came in with an EC50 in experiment [1] of 0.477 nM. In addition, the Neutralizing activity, IC50 (biochemical FXIa assay) in experiment [2] was > 1000 nM.

B4: TPP-8238 (antibody, human IgG1, lambda, V domains shown)
VH: EVQLLESGGGLVQPGGSLRLSCAASGFTFSSYSMNWVRQAPGKGLEWVASISGSGANTYFADTVKGRFTISRDNSKNTLYLQMNSLRAEDTAMYYCARHGQVRLNYGSPTTVYNWFDRWGQGTLVTVSS
VL: QSVLTQPPSASGTPGQRVTISCTGSSSNIGAGYDVHWYQQLPGTAPKLLIYGNSNRPSGVPDRFSGSKSGTSASLAISGLRSEDEADYYCAAWHDSLNGWVFGGGTKLTVLG
B4: the EC50 in experiment [1] came to 0.485 nM. Also, the Neutralizing activity (biochemical FXIa assay) (% inhibition at 1.00E-06 M) in experiment [2] is 75.

B5: TPP-8240 (antibody, human IgG1, lambda, V domains shown)
VH: EVQLLESGGGLVQPGGSLRLSCAASGFTFSSYAMSWVRQAPGKGLEWVAVISYDGSNKHYADSVKGRFTISRDNSKNTLYLQMNSLRAEDTAVYYCARDSMVRGKIFDYWGQGTLVTVSS
VL: QSVLTQPPSASGTPGQRVTISCSGSSSNIGNNAVNWYQQLPGTAPKLLIYEDNKRPSGVPDRFSGSKSGTSASLAISGLRSEDEADYYCMIWHSSAWVFGGGTKLTVLG
In experiment [1], B5 had an EC50 of 0.216 nM. In experiment [2], the Neutralizing activity, IC50 (biochemical FXIa assay) is > 1000 nM.

As usually defined, the EC50 is the concentration needed to bring the measured effect to its halfway point. Low readings indicate an effect from little substance, high ones a need for much substance.

Values taken from patent US20210395390A1.
